From patent US20190352359A1

Target: HLA-A*24
Test: UV peptide-exchange ELISA (anti-b2m); yield grade ++ = >20%

peptide exchange yield: 20 to 50%
Binder: TQFFIPYTI (modifications not checked) [COL10-002]
